Source: PMC12567083, “N-terminal oligomerization drives HDAC4 nuclear condensation and neurodevelopmental dysfunction in Drosophila” (Open Biology, 2025)
Substitutions are numbered along the chain they refer to.

B1: HDAC4^N-WT (N-terminal fragment of Drosophila HDAC4, Pro37 to Gln143) (domain or fragment, UniProt Q9VYF3 37-143, looked up)
chain: PHPAVDIDQQIMELKKSQELQKQRLINSFQEQSKQMELEHKLQLEHKYQFAVNSHGAFQELRNESMVTAAAAAVAQEQHRQQLHQQQQQHQQQQQQQQHQQQQQQQQ
notes: Drosophila HDAC4 (DmHDAC4), translation of nucleotides 461-4216 of NCBI NM_132640; residues Pro37-Gln143, the region that corresponds to Ala62-Gln153 of human HDAC4; codon optimised for E. coli; Cloned in pET-15B in frame with the N-terminal 6x His tag; Which UniProt isoform equals the translation of NM_132640 is not known to me; also called wild-type N-terminal HDAC4
B2: HDAC4^N-F65A (domain or fragment, Drosophila, UniProt Q9VYF3 37-143, looked up)
chain: B1 chain with F29A
notes: Drosophila HDAC4 (DmHDAC4), translation of nucleotides 461-4216 of NCBI NM_132640; residues Pro37-Gln143 with Phe65Ala; Made by mutagenesis of HDAC4^N-WT in pET-15B
B3: HDAC4^N-S69F (domain or fragment, Drosophila, UniProt Q9VYF3 37-143, looked up)
chain: B1 chain with S33F
notes: Drosophila HDAC4 (DmHDAC4), translation of nucleotides 461-4216 of NCBI NM_132640; residues Pro37-Gln143 with Ser69Phe; Made by mutagenesis of HDAC4^N-WT in pET-15B

Target: the molecule itself
Assay: cross-linking; 0.5 mg/ml HDAC4^N in SEC buffer (30 mM HEPES pH 7.6, 150 mM NaCl) with 0.2 mM or 2.0 mM disuccinimidyl suberate (DSS), 30 min at room temperature, quenched with Tris; SDS-PAGE and colloidal Coomassie

Protein | binding result
B1 | binds
B2 | binds
B3 | binds
